These are literature values, as cited in paper PMC3889014.

The data set deals with Cys145 (UniProt position 145, PILIPCHRVVC).

Regarding “O6-alkylguanine DNA-alkyltransferase (AGT; MGMT) (Homo sapiens (inferred; not stated in the sentence with the pKa))”, the pKa was 4–5.
